Test results taken from US20180171024A1.

Experiments:
[1] = target: HLA-A2 on other WT1 negative HLA-A2+ cells (other than 501, A498 and SKMEL; members not named); test: flow cytometry on U266 cells (WT1 mRNA -)
[2] = target: HLA-A2 on HLA-A2+ cells that do not express WT1 (tumor cell lines, normal primary cells); test: flow cytometry on SKMEL-5 melanoma cells (WT1 mRNA -)
[3] = target: Unloaded T2 (Homo sapiens); test: flow cytometry, unloaded T2 cells; design: reference not given here
[4] = target: HLA-A2/Tyrosinase369-377 complex on cells (human); test: flow cytometry, T2 cells loaded with 10^-4 M peptide; design: reference not given here
P68 … (Homo sapiens) = test: as above; design: reference not given here
[5] = target: HLA-A2 on other WT1 negative HLA-A2+ cells (other than 501, A498 and SKMEL; members not named); test: flow cytometry on IM-9 cells (WT1 mRNA -)
[6] = target: HLA-A2/WT1 126-134 complex on T2 cells (human); test: flow cytometry, T2 cells loaded with WT1 peptide 1x10e-4M
[7] = target: HLA-A2 on HLA-A2+ cells that do not express WT1 (tumor cell lines, normal primary cells); test: flow cytometry on 501A melanoma cells (WT1 mRNA -)
[8] = target: HLA-A2/WT1-S7 on T2 cells (human); test: flow cytometry, peptide-loaded T2 cells (10^-4-10^-5 M)
[9] = target: HLA-A2/WT1-S13 on T2 cells (human); test: as above
[10] = target: HLA-A2/WT1-S16 on T2 cells (human); test: as above
[11] = target: HLA-A2/WT1-S6 on T2 cells (human); test: as above
[12] = target: HLA-A2/WT1-S11 on T2 cells (human); test: as above
[13] = target: HLA-A2/WT1-S22 on T2 cells (human); test: as above
[14] = target: HLA-A2/WT1-S10 on T2 cells (human); test: as above
[15] = target: HLA-A2 on HLA-A2+/WT1+ SET2 cells (WT1 mRNA positive; WT1 126-134 peptide not detected by mass spectrometry of eluted HLA peptides); test: flow cytometry on SET-2 cells (WT1 mRNA +)
[16] = target: HLA-A2/WT1 126-134 complex on T2 cells (human); test: flow cytometry, T2 cells loaded with WT1 1x10e-4M in DMSO
[17] = target: HLA-A2 on HLA-A2+ cells that do not express WT1 (tumor cell lines, normal primary cells); test: flow cytometry on A498 cells (WT1 mRNA -)
[18] = target: HLA-A2 on HLA-A2+/WT1+ BV173 cells (WT1 mRNA positive; WT1 126-134 peptide not detected by mass spectrometry of eluted HLA peptides); test: flow cytometry on BV173 cells (WT1 mRNA +)
[19] = target: HLA-A2/WT1 126-134 complex on T2 cells (human); test: flow cytometry, T2 cells loaded with WT1 peptide 1x10e-5M
[20] = target: HLA-A2/MAGE-A9 223-231 complex on T2 cells (human); test: flow cytometry, T2 cells loaded with 10^-4 M peptide
[21] = target: HLA-A2/PAP 112-120 complex on T2 cells (human); test: as above
[22] = target: HLA-A2/MAGE-A4 230-239 complex on cells (human); test: as above
[23] = target: HLA-A2/WT1 126-134 complex on T2 cells (human); test: flow cytometry, T2 cells loaded with 10^-4 M WT1 peptide
[24] = target: HLA-A2 on other WT1 negative HLA-A2+ cells (other than 501, A498 and SKMEL; members not named); test: flow cytometry on JVM-2 cells (WT1 mRNA -)
[25] = target: single-chain recombinant HLA-A2/WT1 126-134 complex (human); test: SPR (ProteOn), biotinylated scHLA-A2/WT1 on NeutrAvidin, Fab as analyte; faster dissociation told in words

ESK1 TCR-like antibody (IgG) showed an MFI [1] of 1.9, an MFI [2] of 4.3 and an MFI [3] of 1. The MFI [4] was 1, the MFI (P68 … (Homo sapiens)) was 1 and the MFI [5] was 1.2. The MFI [6] was 17.9, the MFI [7] was 10.7 and the MFI [8] was 3.1. For the same substance, the MFI [9] was 1.1, the MFI [10] was 1.1 and the MFI [11] was 5. The MFI [12] was 1.1, the MFI [13] was 1.1 and the MFI [14] was 1.4. For the same substance, the MFI [15] was 26.3, the MFI [16] was 17.9 and the MFI [17] was 5.2. The MFI [18] was 8.1, the MFI [19] was 1.6 and the MFI [20] was 1. It also gave an MFI [21] of 1.1, an MFI [22] of 1.1 and an MFI [23] of 18. For the same substance, the MFI [24] was 1.

For ESK1 TCRL Fab, the Kd [25] was 200 nM.
